In this experiment the target is mouse complement protein C5 (mouse) (UniProt P06684). Briefly: cell-based or functional assay.

In patent US20220380444A1 one finds 50% Inhibitory Dose, classical pathway haemolysis assay and Haemolytic Units (HU), classical pathway haemolysis assay data, which are given here for two substances.

Sequence of monoclonal anti-C5 antibody BB5.1 (VH): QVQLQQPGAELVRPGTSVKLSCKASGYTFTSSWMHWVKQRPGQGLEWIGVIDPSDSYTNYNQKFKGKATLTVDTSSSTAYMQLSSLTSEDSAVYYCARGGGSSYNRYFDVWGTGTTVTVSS
Sequence of monoclonal anti-C5 antibody BB5.1 (VL): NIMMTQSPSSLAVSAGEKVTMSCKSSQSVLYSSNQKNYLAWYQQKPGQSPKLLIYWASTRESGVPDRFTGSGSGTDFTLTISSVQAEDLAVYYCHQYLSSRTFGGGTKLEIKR

The substance “Crovalimab (original name SKY59) (antibody)” showed a 50% Inhibitory Dose, classical pathway haemolysis assay of 1860 ng/mL and a Haemolytic Units (HU), classical pathway haemolysis assay of 1.4 HU.
monoclonal anti-C5 antibody BB5.1 yielded a 50% Inhibitory Dose, classical pathway haemolysis assay of 614 ng/mL and a Haemolytic Units (HU), classical pathway haemolysis assay of 16.3 HU.
